According to publication PMC3072023 (Biochemistry, 2010):

Molecular target: the molecule itself
Test: crystal structure

B1: GluA2 S1S2 flop (ligand-binding domain of rat GluA2o) (domain or fragment)
chain: GANKTVVVTTILESPYVMMKKNHEMLEGNERYEGYCVDLAAEIAKHCGFKYKLTIVGDGKYGARDADTKIWNGMVGELVYGKADIAIAPLTITLVREEVIDFSKPFMSLGISIMIKKGTPIESAEDLSKQTEIAYGTLDSGSTKEFFRRSKIAVFDKMWTYMRSAEPSVFVRTTAEGVARVRKSKGKYAYLLESTMNEYIEQRKPCDTMKVGGNLDSKGYGIATPKGSSLGNAVNLAVLKLNEQGLLDKLKNKWWYDKGECGS
B1: binds.
